Data: patent CN113754773A (SUNSHINE GUOJIAN PHARMACEUTICAL SHANGHAI CO LTD, dated 2021)

How the values were obtained:
PD-L1 on N87-PDL1 cells = molecular target: T1, PD-L1 on N87-PDL1 cells (UniProt Q9NZQ7 19-290, limits assumed); test: flow cytometry on N87-PDL1 cells, goat anti-human IgG-FITC
T1 construct: whole, on cells; also called N87-PDL1细胞

PDL1-ECD-His蛋白 = molecular target: T2, PDL1-ECD-His蛋白 (human, UniProt Q9NZQ7 19-238); test: ELISA, PDL1-ECD-His coated, HRP mouse anti-human Fab
T2 construct: extracellular domain; Made in house in HEK-293E cells; also called PD-L1抗原
T2 sequence (Q9NZQ7 other isoform, or with tags, fused parts or gaps): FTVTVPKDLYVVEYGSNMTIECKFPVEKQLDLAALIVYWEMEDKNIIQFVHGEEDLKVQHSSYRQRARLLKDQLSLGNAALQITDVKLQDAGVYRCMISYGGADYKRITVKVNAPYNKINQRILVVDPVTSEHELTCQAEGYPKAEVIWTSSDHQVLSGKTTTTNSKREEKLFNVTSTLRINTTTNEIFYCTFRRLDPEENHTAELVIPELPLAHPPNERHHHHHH

[1] = molecular target: PD-L1 on PD-L1 aAPC/CHO-K1 cells (Promega PD-1/PD-L1 Blockade Bioassay) (UniProt Q9NZQ7 19-290, limits assumed); test: cell-based or functional assay
PD-L1 on PD-L1 aAPC/CHO-K1 cells (Promega PD-1/PD-L1 Blockade Bioassay), sequence (Q9NZQ7 19-290 limits assumed): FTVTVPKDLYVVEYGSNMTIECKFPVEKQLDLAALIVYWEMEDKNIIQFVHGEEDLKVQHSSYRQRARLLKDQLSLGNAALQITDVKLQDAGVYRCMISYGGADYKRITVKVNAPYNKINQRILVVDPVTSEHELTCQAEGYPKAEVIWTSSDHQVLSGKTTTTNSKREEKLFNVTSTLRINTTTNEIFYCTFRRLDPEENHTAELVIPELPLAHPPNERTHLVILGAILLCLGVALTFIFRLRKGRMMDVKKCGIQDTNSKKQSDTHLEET

PD1-ECD-hFc蛋白 [2] = molecular target: T3, PD1-ECD-hFc蛋白 (human, UniProt Q15116 25-170); test: bridging ELISA: PD1-ECD-hFc coated, antibody titrated, then PDL1-ECD-His at 1000ng/ml, read with HRP-anti-His (both antigens bound at once)
T3 construct: extracellular domain; Made in house in HEK-293E cells; also called PD-1抗原; not shown: hFc at the C-terminus
T3 sequence (Q15116 25-170): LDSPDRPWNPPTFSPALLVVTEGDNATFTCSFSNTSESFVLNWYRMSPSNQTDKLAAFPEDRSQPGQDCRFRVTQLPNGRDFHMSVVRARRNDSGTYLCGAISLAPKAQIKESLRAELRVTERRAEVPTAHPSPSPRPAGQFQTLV

PD1-ECD-hFc蛋白 [3] = molecular target: T3, PD1-ECD-hFc蛋白; test: ELISA, PD1-ECD-hFc coated, HRP mouse anti-human Fab
[4] = molecular target: T4, PD-1 on CHO stable cells (PD-1/CHO) (UniProt Q15116 25-288, limits assumed); test: flow cytometry on CHO cells stably expressing PD-1, goat anti-human IgG-FITC
T4 construct: whole, on cells; also called 细胞表面表达PD-1的CHO稳转细胞; PD-1/CHO细胞
T4 sequence (Q15116 25-288 limits assumed): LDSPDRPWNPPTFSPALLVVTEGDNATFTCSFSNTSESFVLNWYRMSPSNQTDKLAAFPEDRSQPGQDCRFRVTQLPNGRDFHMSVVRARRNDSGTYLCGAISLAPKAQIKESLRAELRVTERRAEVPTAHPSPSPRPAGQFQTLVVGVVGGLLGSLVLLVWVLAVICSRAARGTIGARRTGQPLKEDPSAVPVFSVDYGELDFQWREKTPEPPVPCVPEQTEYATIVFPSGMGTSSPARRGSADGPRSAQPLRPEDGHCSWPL

[5] = molecular target: PD-1 on PD1 effector cells (Promega PD-1/PD-L1 Blockade Bioassay) (UniProt Q15116 25-288, limits assumed); test: cell-based or functional assay
PD-1 on PD1 effector cells (Promega PD-1/PD-L1 Blockade Bioassay), sequence (Q15116 25-288 limits assumed): as above

T1 sequence (Q9NZQ7 19-290 limits assumed): as the sequence (Q9NZQ7 19-290 limits assumed) above

| EC50 (PD-L1 on N87-PDL1 cells) [nM] | EC50 (PDL1-ECD-His蛋白) [nM] | IC50, luminescence (PD-1/PD-L1 Blockade Bioassay) [1] [nM] | EC50 (PD1-ECD-hFc蛋白 [2]) [nM] | EC50 (PD1-ECD-hFc蛋白 [3]) [nM] | EC50 [4] [nM] | IC50, luminescence (PD-1/PD-L1 Blockade Bioassay) [5] [nM] | Binder |
| --- | --- | --- | --- | --- | --- | --- | --- |
| 0.11 | 0.27 | 0.42 |  |  |  |  | 抗PD-L1单抗 (M8) (antibody, human IgG1, kappa, V domains shown, also called 抗人PD-L1单抗M8; anti-PD-L1 mAb) VH: QVQLQQSGGGLVKPSQSLSLTCTVSGFSLTSYGVHWVRQPPGKGLEWIGLIWSGGGTDYNPSLKSRLTISRDTSKNQVSFKISSLTAADTAVYYCARQLGLRAMDYWGQGTSVTVSS VL: EIVLTQSPDFLSVTPKEKVTITCRASQSIGTTIHWYQQKPDQSPKLLIKYASQSFSGVPSRFSGSGSGTDFTLTINSVEAEDAATYYCQQSNSWPLTFGAGTKLEIKR |
| 0.15 | 0.29 | 0.24 | 0.36 | 0.3 | 1.43 | 0.24 | anti-PD1×PDL1 BsAb (bispecific antibody, human IgG1, kappa, also called 抗PD1×PDL1双抗; 抗PD1×PDL1双特异性抗体) heavy: not shown light: EIVLTQSPDFLSVTPKEKVTITCRASQSIGTTIHWYQQKPDQSPKLLIKYASQSFSGVPSRFSGSGSGTDFTLTINSVEAEDAATYYCQQSNSWPLTFGAGTKLEIKRTVAAPSVFIFPPSDEQLKSGTASVVCLLNNFYPREAKVQWKVDNALQSGNSQESVTEQDSKDSTYSLSSTLTLSKADYEKHKVYACEVTHQGLSSPVTKSFNRGEC |
